Results from US20240166765A1 (ICONIC THERAPEUTICS, published 2024).

T1: cynomolgus TF ECD-His6 (cynomolgus monkey (Macaca fascicularis))
T1 construct: made in Expi293 cells; also called TF-His; cTF
T1 chain: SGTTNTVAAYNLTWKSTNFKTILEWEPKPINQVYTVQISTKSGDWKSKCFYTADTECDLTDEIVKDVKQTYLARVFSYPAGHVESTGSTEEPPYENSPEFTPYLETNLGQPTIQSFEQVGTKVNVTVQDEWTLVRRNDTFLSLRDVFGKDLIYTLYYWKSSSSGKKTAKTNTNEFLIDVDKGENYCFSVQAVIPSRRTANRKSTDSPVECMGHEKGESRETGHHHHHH

T2: pig TF-His (pig (Sus scrofa))
T2 construct: also called pig TF ECD-His; pTF
T2 chain: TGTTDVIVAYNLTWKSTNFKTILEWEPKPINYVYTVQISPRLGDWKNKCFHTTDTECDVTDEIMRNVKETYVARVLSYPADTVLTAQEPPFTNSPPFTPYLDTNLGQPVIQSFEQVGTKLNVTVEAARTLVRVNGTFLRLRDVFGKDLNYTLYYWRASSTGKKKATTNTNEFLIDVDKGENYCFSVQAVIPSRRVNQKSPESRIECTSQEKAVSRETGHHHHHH


Tests used:
mouse TF ECD-His6 = target: T3, mouse TF ECD-His6 (mouse, UniProt P20352 29-251); experiment: BLI (ForteBio Octet)
T3 construct: made in Expi293 cells; also called TF-His; mTF

relipidated TF [1] = target: T4, relipidated TF (UniProt P13726 33-295, limits assumed); experiment: cell-based or functional assay
[2] = target: T5, human Tissue Factor on MDA-MB-231 cells (human, UniProt P13726 33-295); experiment: cell-based or functional assay
[3] = target: T5, human Tissue Factor on MDA-MB-231 cells; experiment: cell-based or functional assay; remark: listed apart in the source
human TF ECD-His6 [4] = target: T6, human TF ECD-His6 (human, UniProt P13726 33-251); experiment: BLI (ForteBio Octet)
T6 construct: made in Expi293 cells; the entry holds the ECD with the C-terminal TG-His6; also called TF-His; hTF

cynomolgus TF ECD-His6 [5] = target: T1, cynomolgus TF ECD-His6; experiment: BLI (ForteBio Octet)
human TF ECD-His6 [6] = target: T6, human TF ECD-His6; experiment: SPR (Biacore), antibody on chip, TF-His titrated
cynomolgus TF ECD-His6 [7] = target: T1, cynomolgus TF ECD-His6; experiment: SPR (Biacore), antibody on chip, TF-His titrated
relipidated TF [8] = target: T4, relipidated TF; experiment: cell-based or functional assay; remark: listed apart in the source
[9] = target: rTF (rat TF) on HEK293 cells (rat, UniProt P42533 29-252); experiment: live cell staining of transfected HEK293, flow cytometry
pig TF-His = target: T2, pig TF-His; experiment: SPR (Biacore), antibody captured by anti-human IgG on CM5 chip, pig TF-His in solution, 1:1 model

Chain of rTF (rat TF) on HEK293 cells (P42533 29-252): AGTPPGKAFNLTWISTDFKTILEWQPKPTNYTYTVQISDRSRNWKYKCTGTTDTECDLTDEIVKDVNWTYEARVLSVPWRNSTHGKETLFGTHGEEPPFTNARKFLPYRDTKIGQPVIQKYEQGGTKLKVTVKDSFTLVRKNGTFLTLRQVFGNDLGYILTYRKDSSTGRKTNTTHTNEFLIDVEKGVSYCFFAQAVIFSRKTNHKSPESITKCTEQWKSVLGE

Row | Binder | Kd (mouse TF ECD-His6) [nM] | Kd (human TF ECD-His6 [4]) [nM] | Kd (cynomolgus TF ECD-His6 [5]) [nM] | Kd (human TF ECD-His6 [6]) [nM] | Kd (cynomolgus TF ECD-His6 [7]) [nM] | binding result [9] | further results
1 | 43B1 (antibody, human IgG1, V domains shown, human IgG1) VH: QVQLQESGPGLVKPSQTLSLTCTVSGGSISSGQYWSWIRQHPGKGLEWIGEIYYSGSTRYNPSLKSRVTISVDTSKNQFSLKLSSVTAADTAVYYCARDAPYYYGGGYYYYMDVWGKGTTVTVSS VL: EIVLTQSPGTLSLSPGERATLSCRASESVDSSYLAWYQQKPGQAPRLLIYGASTRQTGIPDRFSGSGSGTDFTLTISRLEPEDFAVYYCQQAGVVPYTFGGGTKVEIK | 72.1 | – | – | – | – | – | TGA without pre-incubation, 10 nM Ab: % Peak IIa (relipidated TF [1]): 87%; TGA without pre-incubation, 10 nM Ab: ETP (relipidated TF [1]): 2290 nM·min; TGA without pre-incubation, 10 nM Ab: Lag Time (relipidated TF [1]): 4.9 min; TGA without pre-incubation, 10 nM Ab: Peak IIa (relipidated TF [1]): 299 nM; TGA without pre-incubation, 10 nM Ab: ttPeak (relipidated TF [1]): 8.9 min; TGA without pre-incubation, 50 nM Ab: ETP (relipidated TF [1]): 2200 nM·min; TGA without pre-incubation, 50 nM Ab: Lag Time (relipidated TF [1]): 5.2 min; TGA without pre-incubation, 50 nM Ab: Peak IIa (relipidated TF [1]): 232 nM; TGA without pre-incubation, 100 nM Ab: ETP (relipidated TF [1]): 2170 nM·min; TGA without pre-incubation, 100 nM Ab: Lag Time (relipidated TF [1]): 5.2 min; TGA without pre-incubation, 100 nM Ab: Peak IIa (relipidated TF [1]): 221 nM
2 | 43D (antibody, V domains shown) VH: QVQLQQWGAGLLKPSETLSLTCAVYGGSLSGYYWSWIRQPPGKGLEWIGEIGASGSTRYNPSLKSRVTISVDTSKNQFSLKLSSVTAADTAVYYCARDTPYYYEGGYYYYMDVWGKGTTVTVSS VL: EIVLTQSPGTLSLSPGERATLSCRASQSVSSSYLAWYQQKPGQAPRLLIYGASSRATGIPDRFSGSGSGTDFTLTISRLEPEDFAVYYCQQVGVVPYTFGGGTKVEIK | – | – | – | – | – | – | % IL8, 2.56 nM Ab [2]: 58%; % IL8, 6.4 nM Ab [2]: 21%; % IL8, 40 nM Ab [2]: 5%; % IL8, 100 nM Ab [2]: 5%; % FXa, 25 nM Ab [3]: 109%
3 | 43D (antibody, human IgG1, V domains shown, human IgG1) VH: QVQLQQWGAGLLKPSETLSLTCAVYGGSLSGYYWSWIRQPPGKGLEWIGEIGASGSTRYNPSLKSRVTISVDTSKNQFSLKLSSVTAADTAVYYCARDTPYYYEGGYYYYMDVWGKGTTVTVSS VL: EIVLTQSPGTLSLSPGERATLSCRASQSVSSSYLAWYQQKPGQAPRLLIYGASSRATGIPDRFSGSGSGTDFTLTISRLEPEDFAVYYCQQVGVVPYTFGGGTKVEIK | 281 | 3.84 | 4.12 | 2.09 | 5.66 | – | –
4 | 43B (antibody, human IgG1, V domains shown, human IgG1) VH: QVQLQESGPGLVKPSQTLSLTCTVSGGSISSGQYWSWIRQHPGKGLEWIGEIYYSGSTRYNPSLKSRVTISVDTSKNQFSLKLSSVTAADTAVYYCARDAPYYYGGGYYYYMDVWGKGTTVTVSS VL: EIVLTQSPGTLSLSPGERATLSCRASQSVSSSYLAWYQQKPGQAPRLLIYGASSRATGIPDRFSGSGSGTDFTLTISRLEPEDFAVYYCQQVGVVPYTFGGGTKVEIK | 161 | 2.4 | 3.4 | 1.75 | 5.64 | – | –
5 | 43B7 (antibody, human IgG1, V domains shown, human IgG1) VH: QVQLQESGPGLVKPSQTLSLTCTVSGGSISSGQYWSWIRQHPGKGLEWIGEIYYSGSTRYNPSLKSRVTISVDTSKNQFSLKLSSVTAADTAVYYCARDAPYYYGGGYYYYMDVWGKGTTVTVSS VL: EIVLTQSPGTLSLSPGERATLSCRASESVDSSYLAWYQQKPGQAPRLLIYGADSRATGIPDRFSGSGSGTDFTLTISRLEPEDFAVYYCQQDGVVPYTFGGGTKVEIK | 360 | 0.86 | 0.94 | 0.14 | 0.24 | – | –
6 | 5G9 (antibody, V domains shown) VH: QVQLVESGGGVVQPGRSLRLSCKASGFNIKDYYMHWVRQAPGKGLEWIGLIDPENGNTIYDPKFQGRFTISADNSKNTLFLQMDSLRPEDTAVYYCARDNSYYFDYWGQGTPVTVSS VL: DIQMTQSPSSLSASVGDRVTITCKASQDIRKYLNWYQQKPGKAPKLLIYYATSLADGVPSRFSGSGSGTDYTFTISSLQPEDIATYYCLQHGESPYTFGQGTKLEIT | – | – | – | – | – | – | decrease of peak IIa concentration, TGA with 10 min pre-incubation, 100 nM Ab (relipidated TF [8]): 92%; decrease of peak IIa concentration, TGA without pre-incubation, 100 nM Ab (relipidated TF [8]): 92%
7 | 29E (antibody, human IgG1, V domains shown, human IgG1) VH: QVQLVESGGGVVQPGRSLRLSCAASGFTFRSYGMHWVRQAPGKGLEWVAVITYDGINKYYADSVEGRFTISRDNSKNTLYLQMNSLRAEDTAVYYCARDGVYYGVYDYWGQGTLVTVSS VL: not shown | – | 2.32 | 15 | 0.47 | 5.06 | no binding (tested: 15 µg/ml (100 nM)) | –
8 | 54E (antibody, human IgG1, V domains shown, human IgG1) VH: QVQLVQSGAEVKKPGASVKVSCKASGYTFANYYMHWVRQAPGQGLEWMGIINPSGGITVYAQKFQGRVTMTRDTSTSTVYMELSSLRSEDTAVYYCARGGSKVAALAFDIWGQGTMVTVSS VL: DIQMTQSPSSLSASVGDRVTITCQASQDISNSLNWYQQKPGKAPKLLIYDASNLETGVPSRFSGSRSGTDFTFTISSLQPEDIATYYCQQYNFHPLTFGGGTKVEIK | – | 1.59 | 4.16 | 0.42 | 1.83 | no binding (tested: 15 µg/ml (100 nM)) | –
9 | M1593 (antibody, V domains shown, also called 10H10; 10H10 (M1593)) VH: EVQLVQSGAEVKKPGESLRISCKGSGYTFAPYWIEWVRQMPGKGLEWMGDILPGTGFTTYSPSFQGHVTISADKSISTAYLQWSSLKASDTAMYYCARSGYYGNSGFAYWGQGTLVTVSS VL: DIVMTQTPLSLPVTPGEPASISCKSSQSLLSSGNQKNYLTWYLQKPGQSPQLLIYWASTRESGVPDRFSGSGSGTDFTLKISRVEAEDVGVYYCQNDYTYPLTFGQGTKLEIK | – | – | – | – | – | no binding (tested: 15 µg/ml (100 nM)) | –
10 | TF-011 (antibody, V domains shown, previously described anti-TF antibody) VH: EVQLLESGGGLVQPGGSLRLSCAASGFTFSNYAMSWVRQAPGKGLEWVSSISGSGDYTYYTDSVKGRFTISRDNSKNTLYLQMNSLRAEDTAVYYCARSPWGYYLDSWGQGTLVTVSS VL: DIQMTQSPPSLSASAGDRVTITCRASQGISSRLAWYQQKPEKAPKSLIYAASSLQSGVPSRFSGSGSGTDFTLTISSLQPEDFATYYCQQYNSYPYTFGQGTKLEIK | – | – | – | – | – | no binding (tested: 15 µg/ml (100 nM)) | decrease of peak IIa concentration, TGA with 10 min pre-incubation, 100 nM Ab (relipidated TF [8]): 91%; decrease of peak IIa concentration, TGA without pre-incubation, 100 nM Ab (relipidated TF [8]): 91%
11 | 25A5 (antibody, human IgG1, kappa, V domains shown, human IgG1) VH: QVQLVQSGAEVKKPGASVKVSCKASGYTFDVYGISWVRQAPGQGLEWMGWIAPYSGNTNYAQKLQGRVTMTTDTSTSTAYMELRSLRSDDTAVYYCARDAGTYSPFGYGMDVWGQGTTVTVSS VL: DIQMTQSPSTLSASVGDRVTITCRASESISNWLAWYQQKPGKAPKLLIYKAYSLEYGVPSRFSGSGSGTEFTLTISSLQPDDFATYYCQQFQKLPPFTFGGGTKVEIKR | 188 | 0.64 | – | 0.08 | 0.04 | – | –
12 | 25G (antibody, human IgG1, kappa, V domains shown, human IgG1) VH: QVQLVQSGAEVKKPGASVKVSCKASGYTFRSYGISWVRQAPGQGLEWMGWVAPYNGNTNYAQKLQGRVTMTTDTSTSTAYMELRSLRSDDTAVYYCARDAGTYSPYGYGMDVWGQGTTVTVSS VL: DIQMTQSPSTLSASVGDRVTITCRASQSISSWLAWYQQKPGKAPKLLIYKASSLESGVPSRFSGSGSGTEFTLTISSLQPDDFATYYCQQFQSLPPFTFGGGTKVEIKR | 114 | 21.9 | 17.5 | 23 | 18 | – | –
13 | 25A5-T (antibody, human IgG1, kappa, V domains shown, human IgG1) VH: QVQLVQSGAEVKKPGASVKVSCKASGYTFDAYGISWVRQAPGQGLEWMGWIAPYSGNTNYAQKLQGRVTMTTDTSTSTAYMELRSLRSDDTAVYYCARDAGTYSPFGYGMDVWGQGTTVTVSS VL: DIQMTQSPSTLSASVGDRVTITCRASESISNWLAWYQQKPGKAPKLLIYKAYSLEYGVPSRFSGSGSGTEFTLTISSLQPDDFATYYCQQFQKLPPFTFGGGTKVEIKR | – | – | – | – | – | no binding (tested: 15 µg/ml (100 nM)) | –
14 | 25A3 (antibody, human IgG1, kappa, V domains shown, Human IgG1; also called antibody 25A3) VH: QVQLVQSGAEVKKPGASVKVSCKASGYTFDVYGISWVRQAPGQGLEWMGWIAPYSGNTNYAQKLQGRVTMTTDTSTSTAYMELRSLRSDDTAVYYCARDAGTYSPFGYGMDVWGQGTTVTVSS VL: DIQMTQSPSTLSASVGDRVTITCQASQSINNWLAWYQQKPGKAPKLLIYKAYNLESGVPSRFSGSGSGTEFTLTISSLQPDDFATYYCQLFQSLPPFTFGGGTKVEIKR | – | – | – | – | – | – | Kd (pig TF-His): 5.5 nM
